From the supplement of paper PMC9170038

Tested on: MS2 coat protein
Experiment: apparent KD of MS2 coat protein; designed switch direction (-1 OFF switch, 1 ON switch): -1; higher = weaker reporter binding
Summary of the method: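 Transcription of designed RNA switches on Illumina chips was done by stalled E. coli RNA polymerase. SNAP-549-labelled MS2 coat protein was then titrated in doubling steps from 0.7 or 1.5 nM to 3 µM, with steps of 0.8–1.5 h at the lowest and 10–20 min at the highest concentration. The per-design median over clusters of curve-fitted normalised fluorescence is reported as apparent KD.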

[1] = Eterna round: R95, input ligand: microRNA oligo, concentration not stated
[2] = input ligand: microRNA oligo, concentration not stated
[3] = Eterna round: R95, input ligand: FMN 200 uM
[4] = Eterna round: R95, input ligand: none

Row | Sequence | apparent KD of MS2 coat protein [1] [µM] | apparent KD of MS2 coat protein (input ligand: FMN 200 uM) [µM] | apparent KD of MS2 coat protein (input ligand: none) [µM] | apparent KD of MS2 coat protein [2] [µM] | apparent KD of MS2 coat protein [3] [µM] | apparent KD of MS2 coat protein [4] [µM]
1 | GAUAGACAUGAGGAUCACCCAUGUGAGGAUAUGCGUACGUUGUCCGUAGGCGACGUGCGCAGAAGGCGCGAGGU [Mat - Mod of JL D93] (puzzle: Exclusion 1) | 0.0425 |  |  |  |  | 
2 | CUGCAACAUGAGGAUCACCCAUGUCAGGAUAUUCCAAAAUCGUCGAAAGACGAUAACAGAAGAAGGGACAGUAG [Fiskxlusion 7 - Jieux - Exclusion 1] (Eterna round: R97, puzzle: Exclusion 1) |  | 0.044 | 0.0356 |  |  | 
3 | AGUACUGACACGUCGGUGUUAGUACAAUAAGCUUGUGAAACAUGAGGAUCACCCAUGUCCUCAUAAGCUCGUCUUAU [salish99_TOv2_r3_081] (Eterna round: R96, puzzle: Sensor v3, turn-off variant 2) |  | 0.0151 | 0.0172 | 0.481 |  | 
4 | CCAGCGUAUGUGAGGAUAUGCUGGUCCUUGGAUCAGCAGAAGGCACAUGAGGAUCACCCAUGUGGAAAAGUUGG [Mod of JL 23 - Jieux - Brourd's mod of Exclusion 4] (Eterna round: R97, puzzle: Brourd's mod of Exclusion 4) |  | 0.164 | 0.0273 |  |  | 
5 | CUAAACGCAGGAUAUACAUGAGGAUCACCCAUGUUUGGCCAGUAAACAAGUCGUCUUAGUAGAAGGGCGUUUAG [Eternabot (Original) Solution 42] (Eterna round: R97, puzzle: Exclusion 3) |  | 0.544 | 0.0401 |  |  | 
6 | UUUUACAAGCUUAGAUCCUACAUGAGGAUCACCCAUGUGGUCCGGUGACGUGAGUCACCGGACUAAGCUCGUCUUGU [JL TOV1 3.71] (Eterna round: R97, puzzle: Sensor, turn-off variant 1) |  | 0.124 | 0.114 |  |  | 
7 | CUAGAUCUUCGGAUCUAGUACAUGAGGAUCACCCAUGUGACGAGUAUAUCCUCAAACAAGCUUUUUGCUCGUCUUAU [Sensor v3 - Turn-off variant 1 - 21] (puzzle: Sensor v3, turn-off variant 1) | 0.237 |  |  |  | 0.243 | 0.172
8 | CCGGAAAGGAAGGAUAUGCUAGACGAGAGUCUAGCAGAAGGUCCUACAUGAGGAUCACCCAUGUGUCCUACCGG [Mat - Exclusion 6 - Eli Mod - D38] (Eterna round: R97, puzzle: Exclusion 6) |  | 0.0696 | 0.0798 |  |  | 
9 | UUUUAACAUGAGGAUCACCCAUGUGAGGAUAUCGAAAUUUAUAUUAAUAUUAUUUAUUCGAGAAGGCACAUUUU [JMF 45] (puzzle: Exclusion 1) | 0.118 |  |  |  |  | 
10 | GAGAAACAUGAGGAUCACCCAUGUGAGGAUAUGAGCACGCCGGUGACGGUGAUAAGAAUCAGAAGGCACAUUAA [Mat - Exclusion 1 - JL Mod - D34] (Eterna round: R97, puzzle: Exclusion 1) |  | 0.0957 | 0.0388 |  |  | 
11 | ACCUUACAUGAGGAUCACCCAUGUCAGGAUAUCUCGGGCGGCUGAGGACCAGCCACCCAGAGAAGGGACGAGGA [Qumaraanan] (puzzle: Exclusion 1) | 0.0119 |  |  |  | 0.015 | 0.0157
12 | AAGAAACAUGAGGAUCACCCAUGUCAGGAUAUGAGAAGAAAGAAGAAGAAAGAAGGAAUCAGAAGGGACAAAGG [Ex 1 M6 Mod of Hoglahoo] (puzzle: Exclusion 1) | 0.0517 |  |  |  | 0.0455 | 0.0418
13 | UCUUUACAUGAGGAUCACCCAUGUGAGGAUAUGGUUUCGCUGGCCGUAGCCAGUGGAACCAGAAGGCGCGUGAU [Mat - Exclusion 1 - JL Mod - D25] (Eterna round: R97, puzzle: Exclusion 1) |  | 0.0551 | 0.0709 |  |  | 
14 | UUUAAUUUUUUUUUUUUACAAGCUUUUUGCUCGUCUUAUACAUGAGGAUCACCCAUGUGGGUGGAAAAUAAAUUAUC [JMF 92] (Eterna round: R96, puzzle: Sensor v3, turn-off variant 2) |  | 0.583 | 0.472 | 0.232 |  | 
15 | GAGAAAUUAUAGGAUAUCGUAAGGAUAAUUUAACGAGAAGGAUGAACAUGAGGAUCACCCAUGUGGUAUCAUGG [JL-ex6-3.12] (puzzle: Exclusion 6) | 0.184 |  |  |  | 0.191 | 0.465
16 | ACUCCCAUCGUGAGGAUAUUGAAGCGGGAAGCCGGCAAGAAGGUACAUGAGGAUCACCCAUGUGUGAACAGGAC [Eternabot (L1) Solution 48] (Eterna round: R97, puzzle: Brourd's mod of Exclusion 4) |  | 0.0145 | 0.0149 |  |  | 
17 | UUUUUACAUGAGGAUCACCCAUGUCAGGAUAUUCUUAUAUUUUAUUAUUUUAUUUUUUGAAGAAGGGACUAUUA [My solution] (puzzle: Exclusion 1) | 0.0994 |  |  |  |  | 

Row | Sequence | apparent KD of MS2 coat protein [1] [µM] | apparent KD of MS2 coat protein (input ligand: FMN 200 uM) [µM] | apparent KD of MS2 coat protein (input ligand: none) [µM] | apparent KD of MS2 coat protein [2] [µM] | apparent KD of MS2 coat protein [3] [µM] | apparent KD of MS2 coat protein [4] [µM]
18 | GUACUGACAGGAUAUACAUGAGGAUCACCCAUGUGCCUUAGCGCUACAAAAGUAGCGCGUAGAAGGGUCUGUAC [Omei Ex3 Model Bachelor's Dilema v16] (Eterna round: R97, puzzle: Exclusion 3) |  | 0.0224 | 0.0147 |  |  | 
19 | CCAAGCUGUGUGAGGAUAUGCUGAACCUUGGUUCAGCAGAAGGCACAUGAGGAUCACCCAUGUGAAGAGCUUGG [Mat - Exclusion 4 - JL Mod - D96] (puzzle: Brourd's mod of Exclusion 4) | 0.0166 |  |  |  |  | 
20 | GAAAACGCAGAGGAUAUUUCAGAUCAAAGCUGCAAAGAAGGCUGCACAUGAGGAUCACCCAUGUGGUCUUCAAA [jl-ex6-4.02 ViennaUCT mod] (Eterna round: R97, puzzle: Exclusion 6) |  | 0.386 | 0.0207 |  |  | 
21 | ACUAGGCGAGGAUAUACAUGCUUAACACAGCGAAAGCUGUGACAUGAGGAUCACCCAUGUAGAAGGCGCAAAUA [Enlaedondi] (puzzle: Exclusion 2) | 0.0432 |  |  |  |  | 
22 | GAAAUACAUGAGGAUCACCCAUGUGAGGAUAUGCUAUGGAAAUAAAAAAUAAAACAUAGCAGAAGGUACAAAAG [Mat - Exclusion 1 - Eli mod - D43] (Eterna round: R96, puzzle: Exclusion 1) |  |  |  | 0.0509 |  | 
23 | AGCUAGUCAGGAUAUUCUAAUAAUUACAUGAGGAUCACCCAUGUGAAGAGACAAGGGUGUGAAGAAGGGACUAGCG [Omei Ex5 A1] (Eterna round: R97, puzzle: Exclusion 5) |  | 0.188 | 0.6 |  |  | 
24 | UUUAAUUUUUUUUUUUUACAAGCUUUUUGCUCGUCUUAUACAUGAGGAUCACCCAUGUAAGUGAGGGAUAAAUUAUC [JMF 40] (puzzle: Sensor v3, turn-off variant 2) | 0.0228 |  |  |  | 0.0156 | 0.0156
25 | GAAACGGGUGCACCUCAGUCACAUGAGGAUCACCCAUGUUCUGAGGAUAUGCAUCCAAACGGAACGCAGAAGGCGGAACGUAAC [Beisoner] (Eterna round: R96, puzzle: Exclusion NG 3) |  | 0.0146 | 0.0164 | 0.014 |  | 
26 | CCAAGCUUAUUCAUUAACCACAUGAGGAUCACCCAUGUAUAGGCAAUUAUGACUGGGCUCUUUGGUGCUCGUCUUAU [Sensor-V1 #26] (Eterna round: R97, puzzle: Sensor, turn-off variant 1) |  | 0.0115 | 0.0117 |  |  | 
27 | UCACGGGACUGAGGAUAUACAUGAAUUAUUUUUGUAGAAGGCAGAAUGUUAGAUUAUACACUAUACAUGAGGAUCACCCAUGUU [JR_ExcNG1_Sub023] (Eterna round: R96, puzzle: Exclusion NG 1) |  | 0.0161 | 0.0197 | 0.0205 |  | 
28 | AAGCACCAUGUGAGGAUAUGCCACGGAACCGAUGGGCAGAAGGCACAUGAGGAUCACCCAUGUGACCGGUGGAU [Eternabot (Original) Solution 48] (Eterna round: R97, puzzle: Brourd's mod of Exclusion 4) |  | 0.236 | 0.0446 |  |  | 
29 | CUAAAUCAUGUAGGAUAUGCGUGGCGAAGCUAUGCAGAAGGACAUGAGGAUCACCCAUGUGCUUCCGUCUGAGUACAGACGGAA [Mat - Exclusion NG 1 - Mod of JL - D25] (Eterna round: R96, puzzle: Exclusion NG 1) |  | 0.0772 | 0.232 | 0.16 |  | 
30 | AAGUACCGUCACGAUAGUGAUGGUACAACAGGUAAAUGUACAUGAGGAUCACCCAUGUCCUCUUUUGCUCGUCUUAU [Sensor 3 - 93] (puzzle: Sensor v3, turn-off variant 2) | 0.0362 |  |  |  | 0.147 | 0.16
31 | AUGUGACAUGAGGAUCACCCAUGUCAGGAUAUUUCCAAAAUAAAAUAAAACCGCGUGGAAAGAAGGGACGUGGC [EX1 A.4] (Eterna round: R97, puzzle: Exclusion 1) |  | 0.0274 | 0.0219 |  |  | 
32 | UUUUUCAGGCCAGAUCCUCACAUGAGGAUCACCCAUGUGCUCGUCUGUUUUCGCUCUUUCUUUUUUUUGUUUGUGCU [Level Boss var2-19] (puzzle: Sensor v3, turn-off variant 1) | 0.0275 |  |  |  | 0.181 | 0.312
33 | CUUUUGUGAGGAUAUUAGUAGUAAAUAAAUAAAAUUAUUACUGAGAAGGUACAUGAGGAUCACCCAUGUUCCUU [Salish 062 v21] (Eterna round: R97, puzzle: Exclusion 4) |  | 0.0128 | 0.0199 |  |  | 
